Measurements published in PMC11100570 (Science Advances, 2024).
One block for each binder: values may come before it.

Legend:
[1] = biological target: Munc13-1 MUN domain (residues 933 to 1407, EF, 1453 to 1531) (rat, UniProt Q62768 933-1407; Q62768 1453-1531); assay: ITC
MUN W1165A = MUN W1165A (rat, UniProt Q62768 933-1407; Q62768 1453-1531, W1165A); assay: pull-down

fold change of the dissociation constant against Doc2B (13 to 37) [1]: 10 fold
stoichiometry N [1]: 1
binding result (MUN W1165A): binds
B1: GST-Doc2B FL (full-length Doc2B, residues 1 to 412) (natural protein, mouse, UniProt P70169 1-412, looked up)
chain: MTLRRRGEKATISIQEHMAIDVCPGPIRPIKQISDYFPRFPRGLPPTAAPRAPAPPDAPARSPAASASPRSPSDGARDDDEDVDQLFGAYGASPGPSPGPSPARPPAKPPEDEPDVDGYESDDCTALGTLDFSLLYDQENNALHCTISKAKGLKPMDHNGLADPYVKLHLLPGASKANKLRTKTLRNTLNPSWNETLTYYGITDEDMVRKTLRISVCDEDKFRHNEFIGETRVPLKKLKPNHTKTFSICLEKQLPVDKAEDKSLEERGRILISLKYSSQKQGLLVGIVRCAHLAAMDANGYSDPYVKTYLKPDVDKKSKHKTAVKKKTLNPEFNEEFCYEIKHGDLAKKTLEVTVWDYDIGKSNDFIGGVVLGINAKGERLKHWFDCLKNKDKRIERWHTLTNELPGAVLSD

fold change of the dissociation constant against Doc2B (13 to 37) [1]: 10 fold
B2: GST-Doc2B 13 to 80 (Mid-L) (domain or fragment, mouse, UniProt P70169 13-80, looked up)
chain: SIQEHMAIDVCPGPIRPIKQISDYFPRFPRGLPPTAAPRAPAPPDAPARSPAASASPRSPSDGARDDD
